Results as given in US20230235004A1 (published 2023).

T1: human MAdCAM protein (human, UniProt Q13477 19-317, limits assumed)
T1 construct: also called soluble monomeric human MAdCAM; recombinant human MAdCAM
T1 sequence (looked up): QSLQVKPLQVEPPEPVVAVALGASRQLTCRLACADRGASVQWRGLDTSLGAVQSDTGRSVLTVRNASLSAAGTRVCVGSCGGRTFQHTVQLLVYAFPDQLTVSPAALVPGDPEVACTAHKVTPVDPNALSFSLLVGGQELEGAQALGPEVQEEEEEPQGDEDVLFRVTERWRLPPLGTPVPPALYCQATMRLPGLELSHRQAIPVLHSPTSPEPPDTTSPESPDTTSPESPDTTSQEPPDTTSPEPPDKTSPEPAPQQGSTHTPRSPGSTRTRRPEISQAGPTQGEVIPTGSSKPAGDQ

T2: recombinant mouse MAdCAM-1 (mouse, UniProt Q61826 22-364, limits assumed)
T2 construct: also called mMAdCAM-1
T2 sequence (looked up): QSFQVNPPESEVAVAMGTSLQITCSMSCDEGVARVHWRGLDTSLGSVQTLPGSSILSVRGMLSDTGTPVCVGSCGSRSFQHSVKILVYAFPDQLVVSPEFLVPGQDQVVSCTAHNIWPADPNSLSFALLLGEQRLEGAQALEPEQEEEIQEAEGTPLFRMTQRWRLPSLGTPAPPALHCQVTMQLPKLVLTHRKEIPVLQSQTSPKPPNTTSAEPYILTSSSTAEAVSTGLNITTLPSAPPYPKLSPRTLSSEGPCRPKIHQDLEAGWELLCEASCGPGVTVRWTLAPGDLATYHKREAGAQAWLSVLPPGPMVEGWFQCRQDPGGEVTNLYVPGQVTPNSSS

T3: human MAdCAM expressed on cells (human, UniProt Q13477 19-382)
T3 construct: whole, on cells
T3 sequence (looked up): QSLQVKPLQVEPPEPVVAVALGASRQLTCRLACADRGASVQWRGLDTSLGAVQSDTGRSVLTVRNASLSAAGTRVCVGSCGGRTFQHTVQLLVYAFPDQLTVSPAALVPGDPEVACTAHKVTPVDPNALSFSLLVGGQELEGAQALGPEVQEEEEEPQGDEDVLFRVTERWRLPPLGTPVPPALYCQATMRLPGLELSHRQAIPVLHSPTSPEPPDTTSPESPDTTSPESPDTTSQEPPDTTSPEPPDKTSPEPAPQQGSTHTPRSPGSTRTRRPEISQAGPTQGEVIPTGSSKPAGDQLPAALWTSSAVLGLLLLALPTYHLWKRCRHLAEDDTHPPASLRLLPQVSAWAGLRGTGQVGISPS

T4: mouse MAdCAM expressed on cells (mouse, UniProt Q61826 22-405)
T4 construct: whole, on cells
T4 sequence (looked up): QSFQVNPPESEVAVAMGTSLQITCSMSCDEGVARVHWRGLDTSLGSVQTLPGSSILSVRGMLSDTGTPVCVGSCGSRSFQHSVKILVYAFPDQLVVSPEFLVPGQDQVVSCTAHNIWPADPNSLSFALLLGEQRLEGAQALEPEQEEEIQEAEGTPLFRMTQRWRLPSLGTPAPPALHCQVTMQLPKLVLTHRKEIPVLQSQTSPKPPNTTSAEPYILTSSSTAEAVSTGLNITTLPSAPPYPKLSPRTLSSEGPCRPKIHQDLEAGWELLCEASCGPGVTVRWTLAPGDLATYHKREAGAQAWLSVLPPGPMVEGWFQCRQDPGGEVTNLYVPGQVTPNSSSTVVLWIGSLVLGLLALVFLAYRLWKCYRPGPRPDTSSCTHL

B1: MAdCAM antibody Table 1 clone 59 (scFv)
scFv: EVQLLESGGGLVQPGGSLRLSCAASGFTFSDFWMHWVRQAPGKGLEWISYISGDSGYTNYADSVKGRFTISRDNSKNTLYLQMNSLRAEDTAVYYCARDRPYYYYMDVWGKGTTVTVSSGGGGSGGGGSGGGGSGGGGSDIQMTQSPSSLSASVGDRVTITCRASQSVSRSLAWYQQKPGKAPKLLIYAASSLQSGVPSRFSGSGSGTDFTLTISSLQPEDFATYYCQQYKSYPVTFGQGTKVEIK
B2: MAdCAM antibody Table 1 clone 4 (scFv)
scFv: QVQLVQSGAEVKKPGASVKVSCKASGGTFSSYAISWVRQAPGQGLEWMGSINPSGDTTSYAQKFQGRVTMTRDTSTSTVYMELSSLRSEDTAVYYCAKDKAQWLVGYFDYWGQGTLVTVSSGGGGSGGGGSGGGGSGGGGSDIQMTQSPSSLSASVGDRVTITCQASQDISNSLNWYQQKPGKAPKLLIYAASSLQSGVPSRFSGSGSGTDFTLTISSLQPEDFATYYCQQSYSSVITFGQGTKVEIK
B3: MAdCAM antibody Table 1 clone 63 (scFv)
scFv: EVQLLESGGGLVKPGGSLRLSCAASGFTFDDYAMHWVRQAPGKGLEWVASITSSSAFIDYAASVKGRFTISRDDSKNTLYLQMNSLKTEDTAVYYCARERVDWNSYFDLWGRGTLVTVSSGGGGSGGGGSGGGGSGGGGSEIVMTQSPATLSVSPGERATLSCRASQGISNSYLAWYQQKPGQAPRLLIYGASTRATGIPARFSGSGSGTEFTLTISSLQSEDFAVYYCQQYYTYPPTFGPGTKVDIK
B4: MAdCAM antibody Table 1 clone 2 (scFv)
scFv: QVQLVQSGAEVKKPGASVKVSCKASGYPFIGYYLHWVRQAPGQGLEWMGIINPSGGSTSYAQKFQGRVTMTRDTSTSTVYMELSSLRSEDTAVYYCAREGRLSYGMDAWGQGTLVTVSSGGGGSGGGGSGGGGSGGGGSDIQMTQSPSSLSASVGDRVTITCRASQSISSYLAWYQQKPGKAPKLLIYGASTLESGVPSRFSGSGSGTDFTLTISSLQPEDFATYYCQQTWGPPFTFGQGTKLEIK
B5: MAdCAM antibody Table 1 clone 23 (scFv)
scFv: EVQLLESGGGLVQPGGSLRLSCAASGFTFSSYAMHWVRQAPGKGLEWVSGISGSGGSAYYADSVKGRFTISRDNSKNTLYLQMNSLRAEDTAVYYCATSQAPVDYYYYGMDVWGQGTTVTVSSGGGGSGGGGSGGGGSGGGGSDIQMTQSPSSLSASVGDRVTITCRASQSISSWLAWYQQKPGKAPKLLIYAASNLQRGVPSRFSGSGSGTDFTLTISSLQPEDFATYYCQQSYSIPITFGQGTKVEIK
B6: MAdCAM antibody Table 1 clone 6 (scFv)
scFv: EVQLLESGGGLVQPGGSLRLSCAASGFTFNNYAFHWVRQAPGKGLEWVSRINSYGTSTTYADSVKGRFTISRDNSKNTLYLQMNSLRAEDTAVYYCAREGPVAGYWYFDLWGQGTLVTVSSGGGGSGGGGSGGGGSGGGGSDIQMTQSPSSLSASVGDRVTITCRASQIIGTNLAWYQQKPGKAPKLLIYGASSLQSGVPSRFSGSGSGTDFTLTISSLQPEDFATYYCQQSYRLPFTFGQGTKVEIK
B7: MAdCAM antibody Table 1 clone 5 (scFv)
scFv: EVQLLESGGGLVQPGGSLRLSCAASGFTFSSYWMHWVRQAPGKGLEWVSSISPGGSNIDYADSVKGRFTISRDNSKNTLYLQMNSLRAEDTAVYYCAREVQLSHYDYWGQGTLVTVSSGGGGSGGGGSGGGGSGGGGSDIQMTQSPSSLSASVGDRVTITCRASQGISNSLAWYQQKPGKAPKLLIYGASSLQSGVPSRFSGSGSGTDFTLTISSLQPEDFATYYCQQANSFPFTFGQGTKVEIK
B8: MAdCAM antibody Table 1 clone 20 (scFv)
scFv: EVQLLESGGGLVQPGGSLRLSCAASGFTFDDYAMHWVRQAPGKGLEWVSYIDTSSSHLYYADSVKGRFTISRDNSKNTLYLQMNSLRAEDTAVYYCARDEAAAGYYGMDVWGQGTTVTVSSGGGGSGGGGSGGGGSGGGGSDIQMTQSPSSLSASVGDRVTITCQAGQDISNYLNWYQQKPGKAPKLLIYDASNLETGVPSRFSGSGSGTDFTLTISSLQPEDFATYYCQQTYSTPITFGQGTKLEIK

Target: T1, human MAdCAM protein
Assay: Octet

**Q.** Does B1 bind?
**A.** Result: binds

**Q.** Does B2 bind?
**A.** Result: binds

**Q.** Does B3 bind?
**A.** Result: binds

**Q.** Does B4 bind?
**A.** Result: binds

**Q.** Does B5 bind?
**A.** Result: binds

**Q.** Does B6 bind?
**A.** Result: binds

**Q.** Does B7 bind?
**A.** Result: binds

**Q.** Does B8 bind?
**A.** Result: binds

Target: T2, recombinant mouse MAdCAM-1
Assay: Octet

**Q.** Does B1 bind?
**A.** Result: binds

**Q.** Does B2 bind?
**A.** Result: binds

**Q.** Does B3 bind?
**A.** Result: binds

**Q.** Does B4 bind?
**A.** Result: binds

**Q.** Does B5 bind?
**A.** Result: no binding

**Q.** Does B6 bind?
**A.** Result: no binding

**Q.** Does B7 bind?
**A.** Result: binds

**Q.** Does B8 bind?
**A.** Result: no binding

Target: T3, human MAdCAM expressed on cells
Assay: cell binding

**Q.** Does B1 bind?
**A.** Result: binds

**Q.** Does B2 bind?
**A.** Result: binds

**Q.** Does B3 bind?
**A.** Result: binds

**Q.** Does B4 bind?
**A.** Result: binds

**Q.** Does B5 bind?
**A.** Result: binds

**Q.** Does B6 bind?
**A.** Result: binds

**Q.** Does B7 bind?
**A.** Result: binds

**Q.** Does B8 bind?
**A.** Result: binds

Target: T4, mouse MAdCAM expressed on cells
Assay: cell binding

**Q.** Does B1 bind?
**A.** Result: binds

**Q.** Does B2 bind?
**A.** Result: binds

**Q.** Does B3 bind?
**A.** Result: binds

**Q.** Does B4 bind?
**A.** Result: binds

**Q.** Does B5 bind?
**A.** Result: no binding

**Q.** Does B6 bind?
**A.** Result: no binding

**Q.** Does B7 bind?
**A.** Result: binds

**Q.** Does B8 bind?
**A.** Result: no binding
